Assay results reported in paper PMC9748371.
Where “and” joins values, the source holds several entries; their conditions need not be identical. Identical values can stand only once.

Molecular target: EGFR^K642G-mEGFP (UniProt P00533)
Assay: number and brightness

For “EGFR^K642G-mEGFP (from UniProt P00533) (receptor)”, the apparent brightness BE was 4.11 and 4.73 and 5.53.
